Reference: article PMC4877046, “TrmBL2 from Pyrococcus furiosus Interacts Both with Double-Stranded and Single-Stranded DNA” (PLoS ONE, 2016)

Key:
TrmBL2 [1] = biological target: T1, TrmBL2 (Pyrococcus furiosus, UniProt Q8U3H1 1-264); assay: magnetic tweezers (persistence length); conditions: half-coverage, Hill coefficient 3.0 +/- 0.33; EMSA: PBS, 10 nM DNA, 1 h, room temperature, 8% PAGE in PBS; magnetic tweezers: PBS pH 7.4, 5 mM NaN3, room temperature
T1 sequence: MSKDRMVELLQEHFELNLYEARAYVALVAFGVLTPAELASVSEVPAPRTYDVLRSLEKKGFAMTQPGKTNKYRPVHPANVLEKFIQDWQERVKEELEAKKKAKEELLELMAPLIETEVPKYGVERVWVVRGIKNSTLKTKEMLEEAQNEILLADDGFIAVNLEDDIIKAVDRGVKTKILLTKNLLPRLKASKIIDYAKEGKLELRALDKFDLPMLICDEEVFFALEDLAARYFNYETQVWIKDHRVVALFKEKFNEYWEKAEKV

[2] = biological target: the molecule itself; assay: SEC; gel filtration on a 60 ml Superdex 200 column, 40 mM HEPES pH 7.5, 150 mM NaCl; last step of the purification
TrmBL2 [3] = biological target: T1, TrmBL2; assay: EMSA; apparent Kd, Hill fit, Hill coefficient 2.9 +/- 0.4; Fig 6 legend gives 2.0 uM; EMSA: PBS, 10 nM DNA, 1 h, room temperature, 8% PAGE in PBS; magnetic tweezers: PBS pH 7.4, 5 mM NaN3, room temperature; conditions: protein: recombinant; chain copies: 2; label: 5'-Cy5
TrmBL2 [4] = biological target: T1, TrmBL2; assay: EMSA; apparent Kd, Hill fit, Hill coefficient 4.4 +/- 0.6; Fig 6 legend gives 1.0 uM; EMSA: PBS, 10 nM DNA, 1 h, room temperature, 8% PAGE in PBS; magnetic tweezers: PBS pH 7.4, 5 mM NaN3, room temperature; conditions: protein: recombinant; chain copies: 2; label: 5'-Cy5 on S1; blunt

dsDNA tether for magnetic tweezers was tested, and the K half (TrmBL2 [1]) was 300 nM.

B1: TrmBL2 from Pyrococcus furiosus (natural protein, UniProt Q8U3H1 1-264, looked up)
chain: MSKDRMVELLQEHFELNLYEARAYVALVAFGVLTPAELASVSEVPAPRTYDVLRSLEKKGFAMTQPGKTNKYRPVHPANVLEKFIQDWQERVKEELEAKKKAKEELLELMAPLIETEVPKYGVERVWVVRGIKNSTLKTKEMLEEAQNEILLADDGFIAVNLEDDIIKAVDRGVKTKILLTKNLLPRLKASKIIDYAKEGKLELRALDKFDLPMLICDEEVFFALEDLAARYFNYETQVWIKDHRVVALFKEKFNEYWEKAEKV
notes: TrmBL2 (30.6 kDa) from Pyrococcus furiosus; This E. coli material is dimeric by gel filtration; also called archaeal "TrmB-like" protein TrmBL2; source: E.coli BL21 (DE3), purified (heating to 80°C, Q-Sepharose, Superdex 200)
B1 was tested, and the “stoichiometry N” value [2] was 2.

B2: 60mer ssDNA (ssDNA)
DNA: GATATAATATACCTATATCAATGGCCTCCCACGCATAAGCGCAGATACGTTCTGAGGGAA
B2 gave a Kd (TrmBL2 [3]) of 2.1 ± 0.1 µM.

B3: 60mer dsDNA (dsDNA)
DNA 1: GATATAATATACCTATATCAATGGCCTCCCACGCATAAGCGCAGATACGTTCTGAGGGAA
DNA 2: TTCCCTCAGAACGTATCTGCGCTTATGCGTGGGAGGCCATTGATATAGGTATATTATATC
With B3 the Kd (TrmBL2 [4]) was 1.07 ± 0.03 µM.
